Series [1] deals with the molecule itself. The series is described as follows: SEC-MALS; Superdex200 10/30 coupled to light scattering (miniDAWN TREOS) and refractive index detectors; 20 mM sodium phosphate pH 7.5, 2 mM DTT; oligomeric state.
Series [2] concerns the molecule itself. The series is described as follows: SEC-MALS; light scattering experiments, data not shown; oligomeric state.
In series [3] the target is T1, Cul3^NTD, N-terminal region (residues 20-381) of cullin 3 (UniProt Q13618 20-381).
T1 construct: cullin 3, N-terminal region, residues 20-381; Printed Mw 42 kDa; source: expressed and purified according to Balasco et al. [19]; recombinant, bacterial system
T1 sequence (Q13618 20-381): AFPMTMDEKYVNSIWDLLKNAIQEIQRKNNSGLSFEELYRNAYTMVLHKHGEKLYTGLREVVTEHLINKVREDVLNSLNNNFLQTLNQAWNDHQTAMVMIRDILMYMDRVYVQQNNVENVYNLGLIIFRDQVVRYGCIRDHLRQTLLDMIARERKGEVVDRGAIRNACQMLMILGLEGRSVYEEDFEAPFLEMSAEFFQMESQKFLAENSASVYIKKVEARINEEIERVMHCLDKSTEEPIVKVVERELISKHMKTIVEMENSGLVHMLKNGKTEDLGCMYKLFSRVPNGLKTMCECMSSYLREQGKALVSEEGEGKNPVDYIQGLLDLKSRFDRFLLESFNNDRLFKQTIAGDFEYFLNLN
The series is described as follows: SEC; BTB domain mixed with Cul3^NTD at 4°C in 20 mM NaP, 200 mM NaCl, 2 mM DTT pH 7.5; Superdex 200 10/30; SDS-PAGE of the peaks. The conditions noted are these: both partners purified. On the technique in general: Size exclusion chromatography separates by hydrodynamic size, large species first.

In series [4] the target is T1, Cul3^NTD, N-terminal region (residues …). The series is described as follows: ITC; BTB domain (55 μM as tetramer) titrated into Cul3^NTD (25 μM); 22°C; 20 mM NaP, 200 mM NaCl, 2 mM DTT pH 7.5; single-binding site model. The conditions noted are these: both partners purified. Background: ITC needs no label: the signal is the heat of the interaction.

B1: BTB domain of KCTD15 (KCTD15^BTB) (domain or fragment, human, UniProt Q96SI1-1 61-157, looked up)
chain: DVGGHMYTSSLATLTKYPDSRISRLFNGTEPIVLDSLKQHYFIDRDGEIFRYVLSFLRTSKLLLPDDFKDFSLLYEEARYYQLQPMVRELERWQQEQ
notes: KCTD15, human, BTB domain, residues 61-157 of UniProt Q96SI1-1; cloned NdeI/EcoRI into pET28b+; Tetramer by light scattering (47.1 kDa against 47.5 kDa expected); source: E. coli BL21(DE3) pLys-S co-transformed with pREP4 GroESL, purified (Ni-NTA, Superdex200)
Consider B1, for which, in series [1], the “stoichiometry N” value was 4.

B2: chimeric BTB domain CHIM11/12^BTB (KCTD11^BTB with residues 42-63 replaced by residues 61-80 of KCTD12^BTB) (domain or fragment, UniProt Q693B1-2 15-41, looked up)
chain: GPVTLNVGGTLYSTTLETLTRFPDSMLWRMFTQQQPQELARDSKGRFFIDRDGKAFRHILNFLRLGRLDLPRGYGETALLRAEADFYQIRPLLDALRELE
notes: KCTD11 BTB domain (15-116 of the long form, isoform 2) up to the replaced α2β3 loop (42-63); numbers count on: the long form (isoform 2); KCTD12, residues 61-80, predicted α2β3 loop; KCTD11 BTB domain (15-116 of the long form, isoform 2) after the replaced α2β3 loop (42-63); also called chimeric variant of KCTD11; source: E. coli, purified (procedure used for KCTD11 [5])
Turning to B2, the “stoichiometry N” value in series [1] came out at 4.

B3: BTB domain of KCTD12 (KCTD12^BTB) (domain or fragment, UniProt Q96CX2 27-131, looked up)
chain: AEPPLFPDIVELNVGGQVYVTRRCTVVSVPDSLLWRMFTQQQPQELARDSKGRFFLDRDGFLFRYILDYLRDLQLVLPDYFPERSRLQREAEYFELPELVRRLGA
notes: KCTD12, BTB domain, residues 27-131 of UniProt Q96CX2; Tetramer (~46 kDa); source: E. coli BL21(DE3), purified (procedure of Correale et al. [24] and Errington et al. [25])
B3: the “stoichiometry N” value in series [2] is 4.

B4: BTB domain of KCTD6 (KCTD6^BTB) (domain or fragment, UniProt Q8NC69 10-110, looked up)
chain: MTDPVTLNVGGHLYTTSLTTLTRYPDSMLGAMFGGDFPTARDPQGNYFIDRDGPLFRYVLNFLRTSELTLPLDFKEFDLLRKEADFYQIEPLIQCLNDPKP
notes: KCTD6, BTB domain, residues 10-110 of UniProt Q8NC69; Tetramer (~46 kDa); source: E. coli BL21(DE3), purified (protocol of Pirone et al. [23])
On to B4, for which the “stoichiometry N” value in series [2] turned out to be 4.

B5: BTB domain of KCTD11 (KCTD11^BTB) (domain or fragment, UniProt Q693B1-2 15-116, looked up)
chain: GPVTLNVGGTLYSTTLETLTRFPDSMLGAMFRAGTPMPPNLNSQGGGHYFIDRDGKAFRHILNFLRLGRLDLPRGYGETALLRAEADFYQIRPLLDALRELE
notes: KCTD11, BTB domain, residues 15-116 of the long form of the protein (isoform 2, UniProt Q693B1-2); numbers count on: the long form (isoform 2); Tetramer (~46 kDa); source: E. coli BL21(DE3), purified (procedure of Correale et al. [5])
With B5, the “stoichiometry N” value in series [2] stood at 4. The “stoichiometry N” value in series [3] was 1 BTB chains : Cul3^NTD (4:4). Also, in series [4], the affinity, expressed as Kd, was 25 ± 2 nM; the dH was -21 ± 0.1 kcal/mol; the “stoichiometry N” value was ~0.25 KCTD tetramers per Cul3^NTD.

The term stoichiometry N denotes a count of units in the complex or per binding partner. In general, Kd refers to the concentration at which binding is half-saturated.

The record behind these values is PMC4431850 (PLoS ONE, 2015).
